Data from patent publication US20180362643A1 (Amgen, published 2018).
One block for each binder: values may come before it. Ends that are not written are not given here.

Experiments:
[1] = target: T1, amino terminal PACAP38 peptide (amino acids 1-13) (human); test: ELISA screen of B-cell culture supernatant; N-terminal peptide at 500 ng/mL
T1 construct: also called N-terminal Peptide; N-terminal PACAP peptide
T1 peptide: HSDGIFTDSYSRY

30-37 [2] = target: T2, 30-37; test: SPR (Biacore 3000), solution competition: antibody pre-incubated 2 h with the peptide at 1:200 molar ratio (Ab:peptide), then injected over immobilised full-length PACAP38; readout % inhibition of antibody binding (filing counts >50 % as reactive)
T2 construct: also called PACAP38 peptide fragment 30-37; peptide No. 19
T2 peptide: RYKQRVKN
Method: (§1) The binding epitopes of anti-PACAP antibodies were evaluated by using the Biacore 3000 biosensor-based instrument (GE Healthcare USA). The Biacore 3000 instrument utilizes surface plasmon resonance (SPR) technology to measure mass increase on the sensor-chip surface. The binding interactions are measured in real-time and recorded as Response Units (RU). Each binding profile (cycle) is stored in a “sensorgram” in real-time. Generally, Biacore technology entails immobilizing a ligand of interest on to a flow-cell of the sensor-chip via a coupling chemistry. The analyte (e.g. putative binding partner to the ligand of interest) is injected across the immobilized ligand allowing it to bind to the ligand-immobilized surface. The magnitude of the response is directly proportional to the mass increase on the immobilized surface due to the binding of the analyte.
(§2) In this experiment, various peptide fragments of PACAP38 were incubated with each of the six antibodies (mAb1, mAb2, mAb3, mAb4, mAb5, and mAb6) described in Example 2 and evaluated for their ability to inhibit binding of the antibodies to full-length PACAP38 immobilized on the sensor-chip. The binding epitopes for each of the antibodies were deduced from the set of peptides that were able to inhibit the binding of each antibody to full-length PACAP38.
(§3) Each of the six anti-PACAP antibodies was incubated at a 1:200 molar ratio (Ab: peptide fragment) with each of the peptide fragments in Table 9 at an ambient temperature for 2 hours prior to analysis. […] A second control containing 6.5 nM antibody was prepared in sample diluent to be used as the untreated control sample for each antibody. Full-length PACAP38, buffer, and each peptide fragment were also tested to evaluate non-specific binding to the immobilized PACAP38 surface.

[3] = target: T3, PACAP38 peptide fragment 27-38 (human, ends and bridges not checked); test: as above
T3 construct: also called peptide No. 6
T3 peptide: LGKRYKQRVKNK
Method: as §1, §2, §3

31-38 [4] = target: T4, 31-38 (ends and bridges not checked); test: as above
T4 construct: also called PACAP38 peptide fragment 31-38; peptide No. 5
T4 peptide: YKQRVKNK
Method: as §1, §2, §3

[5] = target: T5, PACAP38 peptide fragment 11-27 (human); test: SPR (Biacore 3000), solution competition with the peptide for antibody binding to immobilised full-length PACAP38; % inhibition
T5 construct: also called peptide No. 8
T5 peptide: SRYRKQMAVKKYLAAVL
Method: as §1, §2, §3

[6] = target: T1, amino terminal PACAP38 peptide (amino …); test: as above
Method: as §1, §2, §3

[7] = target: T6, PACAP38 peptide fragment 6-36 (human); test: as above
T6 construct: also called peptide No. 12
T6 peptide: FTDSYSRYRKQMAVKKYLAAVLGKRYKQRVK
Method: as §1, §2, §3

human PACAP27 = target: T7, human PACAP27 (human, not fully specified); test: as above
T7 construct: Natural isoform, amino acids 1-27 of PACAP38; also called peptide No. 1 (amino acids 1-27 of PACAP38)
T7 peptide: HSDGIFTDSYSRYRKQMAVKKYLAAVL
Method: as §1, §2, §3

[8] = target: T8, PACAP38 peptide fragment 6-35 (human); test: as above
T8 construct: also called peptide No. 4
T8 peptide: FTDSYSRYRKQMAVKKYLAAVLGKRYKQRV
Method: as §1, §2, §3

[9] = target: T9, PACAP38 peptide fragment 4-27 (human); test: as above
T9 construct: also called peptide No. 9
T9 peptide: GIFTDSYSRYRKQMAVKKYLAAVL
Method: as §1, §2, §3

30-37 [10] = target: T2, 30-37; test: as above
Method: as §1, §2, §3

31-38 [11] = target: T4, 31-38; test: as above
Method: as §1, §2, §3

[12] = target: T10, PACAP38 peptide fragment 26-33 (human); test: SPR (Biacore 3000) solution competition against immobilised PACAP38
T10 construct: also called peptide No. 2
T10 peptide: VLGKRYKQ

[13] = target: T3, PACAP38 peptide fragment 27-38; test: as above
[14] = target: T5, PACAP38 peptide fragment 11-27; test: SPR (Biacore 3000), solution competition: antibody pre-incubated 2 h with the peptide at 1:200 molar ratio (Ab:peptide), then injected over immobilised full-length PACAP38; readout % inhibition of antibody binding (filing counts >50 % as reactive)
Method: as §1, §2, §3

[15] = target: T8, PACAP38 peptide fragment 6-35; test: as above
Method: as §1, §2, §3

[16] = target: T9, PACAP38 peptide fragment 4-27; test: as above
Method: as §1, §2, §3

Optical Density [1]: 0.06 OD
binding result (30-37 [2]): binds
binding result [3]: binds
binding result (31-38 [4]): binds
B1: mAb2 (antibody, V domains shown)
VH: QSLEESGGGLVQPEGSLTLTCTASGFSFNSSSYMCWVRQAPGKGLEWIGCIFTGSSGNTYYATWAQGRFTISKTSTTVTLEMTSLTAADTATYFCARDRAYFLVGYFYATYYFDLWGPGTLVTVSS
VL: DVVMTQTPSPVSAQVGGTVTINCQASESIDSDLSWYQQKPGQPPKLLIYRTFTLESGVPSRFKGSGSGTDYTLTISDLECADAAIYYCQCTDGSSISGSYGWDAFGGGTEVVVKG
notes: Rabbit monoclonal antibody (SLAM), recombinant; also called monoclonal anti-PACAP antibody 2; 2 (c81)
binding result [5]: no binding (tested: 1:200 molar ratio (Ab:peptide))
binding result [6]: no binding (tested: 1:200 molar ratio (Ab:peptide))
binding result [7]: no binding (tested: 1:200 molar ratio (Ab:peptide))
binding result (human PACAP27): no binding (tested: 1:200 molar ratio (Ab:peptide))
binding result [8]: no binding (tested: 1:200 molar ratio (Ab:peptide))
binding result [9]: no binding (tested: 1:200 molar ratio (Ab:peptide))

B2: mAb5 (antibody, V domains shown)
VH: QSVEESGGRLVTPGTPLTLTCTVSGFSLSTYNMCWVRQAPGKGLEWVGFINSDDSAYYASWAKGRFTFSKTSTTVDLKIASPTTEDTATYFCARYDWDYYYSRLDLWGPGTLVTVSS
VL: DIVLTQTPASVSAAVGGTVSISCQSSESVYNNNYLSWFQQKPGQPPKLLIYGASTLASGVPSRFEGSGSGTQFTLTISDVQCDDAATYYCLGDYIIIENIFGGGTEVVVKG
notes: Rabbit monoclonal antibody (SLAM), recombinant; also called monoclonal anti-PACAP antibody 5; 5 (c71)
binding result (30-37 [10]): no binding (tested: 1:200 molar ratio (Ab:peptide))
binding result (31-38 [11]): no binding (tested: 1:200 molar ratio (Ab:peptide))
binding result [12]: no binding (tested: 1:200 molar ratio (Ab: peptide fragment))
binding result [13]: no binding (tested: 1:200 molar ratio (Ab: peptide fragment))

binding result [14]: binds
binding result [15]: binds
binding result [16]: binds
B3: mAb6 (antibody, V domains shown)
VH: QLEESGGGLVQPGASLTLTCTTSGFSLSDNYLCWVRQAPGRGLEWVACIGIVLRSTGATYYASWAEGRFTISKTSPTTVTLEMTSLTAADTATYFCALDLGYGGPLWGPGTLVTVSS
VL: AQVLTQTPASVSAAVGGTVTINCQASQSVYNNKNLAWYQQKPGQPPKLLIYFSSTLASGVPSRFRGSGSGTQFTLTISGVQCGDAATYYCLGEFGSIWAFGGGTEVVVKG
notes: Rabbit monoclonal antibody (SLAM), recombinant; also called monoclonal anti-PACAP antibody 6; 6 (c55)
binding result (30-37 [10]): no binding (tested: 1:200 molar ratio (Ab:peptide))
binding result (31-38 [11]): no binding (tested: 1:200 molar ratio (Ab:peptide))
